The data set has as its target T1, BRB1 tyrosine kinase substrate peptide.
T1 chain: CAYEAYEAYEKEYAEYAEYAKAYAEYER

B1: HER4 (ERBB4) (protein)
chain: RRKSIKKKRALRRFLETELVEPLTPSGTAPNQAQLRILKETELKRVKVLGSGAFGTVYKGIWVPEGETVKIPVAIKILNETTGPKANVEFMDEALIMASMDHPHLVRLLGVCLSPTIQLVTQLMPHGCLLEYVHEHKDNIGSQLLLNWCVQIAKGMMYLEERRLVHRDLAARNVLVKSPNHVKITDFGLARLLEGDEKEYNADGGKMPIKWMALECIHYRKFTHQSDVWSYGVTIWELMTFGGKPYDGIPTREIPDLLEKGERLPQPPICTIDVYMVMVKCWMIDADSRPKFKELAAEFSRMARDPQRYLVIQGDDRMKLPSPNDSKFFQNLLDEEDLEDMMDAEEYLVPQAFNIPPPIYTSRARIDSNRSEIGHSPPPAYTPMSGNQFVYRDGGFAAEQGVSVPYRAPTSTIPEAPVAQGATAEIFDDSCCNGTLRKPVAPHVQEDSSTQRYSADPTVFAPERSPRGELDEEGYMTPMRDKPKQEYLNPVEENPFVSRRKNGDLQALDNPEYHNASNGPPKAEDEYVNEPLYLNTFANTLGKAEYLKNNILSMPEKAKKAFDNPDYWNHSLPPRSTLQHPDYLQEYSTKYFYKQNGRIRPIVAENPEYLSEFSLKPGTVLPPPPYRHRNTVV
Consider B1, for which the Signal to Noise ratio with BRB1 Peptide (TR-FRET kinase assay; kinase 0.1 nM) came to 3.1.

B2: IRR (protein)
chain: YGKKRNRTLYASVNPEYFSASDMYVPDEWEVPREQISIIRELGQGSFGMVYEGLARGLEAGEESTPVALKTVNELASPRECIEFLKEASVMKAFKCHHVVRLLGVVSQGQPTLVIMELMTRGDLKSHLRSLRPEAENNPGLPQPALGEMIQMAGEIADGMAYLAANKFVHRDLAARNCMVSQDFTVKIGDFGMTRDVYETDYYRKGGKGLLPVRWMAPESLKDGIFTTHSDVWSFGVVLWEIVTLAEQPYQGLSNEQVLKFVMDGGVLEELEGCPLQLQELMSRCWQPNPRLRPSFTHILDSIQEELRPSFRLLSFYYSPECRGARGSLPTTDAEPDSSPTPRDCSPQNGGPGH
Regarding B2, the Signal to Noise ratio with BRB1 Peptide (TR-FRET kinase assay; kinase 0.5 nM) was determined as 19.2.

B3: IGF1R (protein)
chain: RKRNNSRLGNGVLYASVNPEYFSAADVYVPDEWEVAREKITMSRELGQGSFGMVYEGVAKGVVKDEPETRVAIKTVNEAASMRERIEFLNEASVMKEFNCHHVVRLLGVVSQGQPTLVIMELMTRGDLKSYLRSLRPEMENNPVLAPPSLSKMIQMAGEIADGMAYLNANKFVHRDLAARNCMVAEDFTVKIGDFGMTRDIYETDYYRKGGKGLLPVRWMSPESLKDGVFTTYSDVWSFGVVLWEIATLAEQPYQGLSNEQVLRFVMEGGLLDKPDNCPDMLFELMRMCWQYNPKMRPSFLEIISSIKEEMEPGFREVSFYYSEENKLPEPEELDLEPENMESVPLDPSASSSSLPLPDRHSGHKAENGPGPGVLVLRASFDERQPYAHMNGGRKNERALPLPQSSTC
For B3, the Signal to Noise ratio with BRB1 Peptide (TR-FRET kinase assay; kinase 0.25 nM) amounted to 25.1.

B4: FLT1 (protein)
chain: RKMKRSSSEIKTDYLSIIMDPDEVPLDEQCERLPYDASKWEFARERLKLGKSLGRGAFGKVVQASAFGIKKSPTCRTVAVKMLKEGATASEYKALMTELKILTHIGHHLNVVNLLGACTKQGGPLMVIVEYCKYGNLSNYLKSKRDLFFLNKDAALHMEPKKEKMEPGLEQGKKPRLDSVTSSESFASSGFQEDKSLSDVEEEEDSDGFYKEPITMEDLISYSFQVARGMEFLSSRKCIHRDLAARNILLSENNVVKICDFGLARDIYKNPDYVRKGDTRLPLKWMAPESIFDKIYSTKSDVWSYGVLLWEIFSLGGSPYPGVQMDEDFCSRLREGMRMRAPEYSTPEIYQIMLDCWHRDPKERPRFAELVEKLGDLLQANVQQDGKDYIPINAILTGNSGFTYSTPAFSEDFFKESISAPKFNSGSSDDVRYVNAFKFMSLERIKTFEELLPNATSMFDDYQGDSSTLLASPMLKRFTWTDSKPKASLKIDLRVTSKSKESGLSDVSRPSFCHSSCGHVSEGKRRFTYDHAELERKIACCSPPPDYNSVVLYSTPPI
As to B4, the Signal to Noise ratio with BRB1 Peptide (TR-FRET kinase assay; kinase 0.25 nM) is 4.1.

B5: FMS (CSFR) (protein)
chain: KYKQKPKYQVRWKIIESYEGNSYTFIDPTQLPYNEKWEFPRNNLQFGKTLGAGAFGKVVEATAFGLGKEDAVLKVAVKMLKSTAHADEKEALMSELKIMSHLGQHENIVNLLGACTHGGPVLVITEYCCYGDLLNFLRRKAEAMLGPSLSPGQDPEGGVDYKNIHLEKKYVRRDSGFSSQGVDTYVEMRPVSTSSNDSFSEQDLDKEDGRPLELRDLLHFSSQVAQGMAFLASKNCIHRDVAARNVLLTNGHVAKIGDFGLARDIMNDSNYIVKGNARLPVKWMAPESIFDCVYTVQSDVWSYGILLWEIFSLGLNPYPGILVNSKFYKLVKDGYQMAQPAFAPKNIYSIMQACWALEPTHRPTFQQICSFLQEQAQEDRRERDYTNLPSSSRSGGSGSSSSELEEESSSEHLTCCEQGDIAQPLLQPNNYQFC
On to B5, for which the Signal to Noise ratio with BRB1 Peptide (TR-FRET kinase assay; kinase 0.25 nM) came to 3.

B6: FLT3 (protein)
chain: HKYKKQFRYESQLQMVQVTGSSDNEYFYVDFREYEYDLKWEFPRENLEFGKVLGSGAFGKVMNATAYGISKTGVSIQVAVKMLKEKADSSEREALMSELKMMTQLGSHENIVNLLGACTLSGPIYLIFEYCCYGDLLNYLRSKREKFHRTWTEIFKEHNFSFYPTFQSHPNSSMPGSREVQIHPDSDQISGLHGNSFHSEDEIEYENQKRLEEEEDLNVLTFEDLLCFAYQVAKGMEFLEFKSCVHRDLAARNVLVTHGKVVKICDFGLARDIMSDSNYVVRGNARLPVKWMAPESLFEGIYTIKSDVWSYGILLWEIFSLGVNPYPGIPVDANFYKLIQNGFKMDQPFYATEEIYIIMQSCWAFDSRKRPSFPNLTSFLGCQLADAEEAMYQNVDGRVSECPHTYQNRRPFSREMDLGLLSPQAQVEDS
B6: the Signal to Noise ratio with BRB1 Peptide (TR-FRET kinase assay; kinase 0.1 nM) was 25.9.

B7: KIT (protein)
chain: TYKYLQKPMYEVQWKVVEEINGNNYVYIDPTQLPYDHKWEFPRNRLSFGKTLGAGAFGKVVEATAYGLIKSDAAMTVAVKMLKPSAHLTEREALMSELKVLSYLGNHMNIVNLLGACTIGGPTLVITEYCCYGDLLNFLRRKRDSFICSKQEDHAEAALYKNLLHSKESSCSDSTNEYMDMKPGVSYVVPTKADKRRSVRIGSYIERDVTPAIMEDDELALDLEDLLSFSYQVAKGMAFLASKNCIHRDLAARNILLTHGRITKICDFGLARDIKNDSNYVVKGNARLPVKWMAPESIFNCVYTFESDVWSYGIFLWELFSLGSSPYPGMPVDSKFYKMIKEGFRMLSPEHAPAEMYDIMKTCWDADPLKRPTFKQIVQLIEKQISESTNHIYSNLANCSPNRQKPVVDHSVRINSVGSTASSSQPLLVHDDV
Regarding B7, the Signal to Noise ratio with BRB1 Peptide (TR-FRET kinase assay; kinase 2 nM) was 1.5.

B8: FGFR4 (protein)
chain: RGQALHGRHPRPPATVQKLSRFPLARQFSLESGSSGKSSSSLVRGVRLSSSGPALLAGLVSLDLPLDPLWEFPRDRLVLGKPLGEGCFGQVVRAEAFGMDPARPDQASTVAVKMLKDNASDKDLADLVSEMEVMKLIGRHKNIINLLGVCTQEGPLYVIVECAAKGNLREFLRARRPPGPDLSPDGPRSSEGPLSFPVLVSCAYQVARGMQYLESRKCIHRDLAARNVLVTEDNVMKIADFGLARGVHHIDYYKKTSNGRLPVKWMAPEALFDRVYTHQSDVWSFGILLWEIFTLGGSPYPGIPVEELFSLLREGHRMDRPPHCPPELYGLMRECWHAAPSQRPTFKQLVEALDKVLLAVSEEYLDLRLTFGPYSPSGGDASSTCSSSDSVFSHDPLPLGSSSFPFGSGVQT
For B8, the Signal to Noise Ratio with BRB1 Peptide (TR-FRET kinase assay; kinase 3 nM) turned out to be 17.7.

B9: MER (protein)
chain: KRVQETKFGNAFTEEDSELVVNYIAKKSFCRRAIELTLHSLGVSEELQNKLEDVVIDRNLLILGKILGEGEFGSVMEGNLKQEDGTSLKVAVKTMKLDNSSQREIEEFLSEAACMKDFSHPNVIRLLGVCIEMSSQGIPKPMVILPFMKYGDLHTYLLYSRLETGPKHIPLQTLLKFMVDIALGMEYLSNRNFLHRDLAARNCMLRDDMTVCVADFGLSKKIYSGDYYRQGRIAKMPVKWIAIESLADRVYTSKSDVWAFGVTMWEIATRGMTPYPGVQNHEMYDYLLHGHRLKQPEDCLDELYEIMYSCWRTDPLDRPTFSVLRLQLEKLLESLPDVRNQADVIYVNTQLLESSEGLAQGSTLAPLDLNIDPDSIIASCTPRAAISVVTAEVHDSKPHEGRYILNGGSEEWEDLTSAPSAAVTAEKNSVLPGERLVRNGVSWSHSSMLPLGSSLPDELLFADDSSEGSEVLM
As for B9, the Signal to Noise ratio with BRB1 Peptide (TR-FRET kinase assay; kinase 0.25 nM) came out at 12.9.

B10: FLT4 (protein)
chain: MRRPAHADIKTGYLSIIMDPGEVPLEEQCEYLSYDASQWEFPRERLHLGRVLGYGAFGKVVEASAFGIHKGSSCDTVAVKMLKEGATASEHRALMSELKILIHIGNHLNVVNLLGACTKPQGPLMVIVEFCKYGNLSNFLRAKRDAFSPCAEKSPEQRGRFRAMVELARLDRRRPGSSDRVLFARFSKTEGGARRASPDQEAEDLWLSPLTMEDLVCYSFQVARGMEFLASRKCIHRDLAARNILLSESDVVKICDFGLARDIYKDPDYVRKGSARLPLKWMAPESIFDKVYTTQSDVWSFGVLLWEIFSLGASPYPGVQINEEFCQRLRDGTRMRAPELATPAIRRIMLNCWSGDPKARPAFSELVEILGDLLQGRGLQEEEEVCMAPRSSQSSEEGSFSQVSTMALHIAQADAEDSPPSLQRHSLAARYYNWVSFPGCLARGAETRGSSRMKTFEEFPMTPTTYKGSVDNQTDSGMVLASEEFEQIESRHRQESGFS
For B10, the Signal to Noise ratio with BRB1 Peptide (TR-FRET kinase assay; kinase 0.25 nM) was 20.

B11: LTK (protein)
chain: KQKKWQGLQEMRLPSPELELSKLRTSAIRTAPNPYYCQVGLGPAQSWPLPPGVTEVSPANVTLLRALGHGAFGEVYEGLVIGLPGDSSPLQVAIKTLPELCSPQDELDFLMEALIISKFRHQNIVRCVGLSLRATPRLILLELMSGGDMKSFLRHSRPHLGQPSPLVMRDLLQLAQDIAQGCHYLEENHFIHRDIAARNCLLSCAGPSRVAKIGDFGMARDIYRASYYRRGDRALLPVKWMPPEAFLEGIFTSKTDSWSFGVLLWEIFSLGYMPYPGRTNQEVLDFVVGGGRMDPPRGCPGPVYRIMTQCWQHEPELRPSFASILERLQYCTQDPDVLNSLLPMELGPTPEEEGTSGLGNRSLECLRPPQPQELSPEKLKSWGGSPLGPWLSSGLKPLKSRGLQPQNLWNPTYRS
Turning to B11, the Signal to Noise Ratio with BRB1 Peptide (TR-FRET kinase assay; kinase 1 nM) stood at 13.7.

The values are drawn from patent publication US20100015650.
